Results as given in patent US20230272086A1 (CHIA TAI TIANQING PHARMACEUTICAL GROUP, published 2023).

T1: human ST2 (hST2, Interleukin-1 receptor-like 1 isoform A) on cells (human, UniProt Q01638 19-556)
T1 construct: the same id is used for hST2 naturally expressed on KU812 cells and on human CD4+ T cells; also called HEK293T-hST2-NFκB-Luciferase; KU812-NFκB-Luciferase
T1 sequence: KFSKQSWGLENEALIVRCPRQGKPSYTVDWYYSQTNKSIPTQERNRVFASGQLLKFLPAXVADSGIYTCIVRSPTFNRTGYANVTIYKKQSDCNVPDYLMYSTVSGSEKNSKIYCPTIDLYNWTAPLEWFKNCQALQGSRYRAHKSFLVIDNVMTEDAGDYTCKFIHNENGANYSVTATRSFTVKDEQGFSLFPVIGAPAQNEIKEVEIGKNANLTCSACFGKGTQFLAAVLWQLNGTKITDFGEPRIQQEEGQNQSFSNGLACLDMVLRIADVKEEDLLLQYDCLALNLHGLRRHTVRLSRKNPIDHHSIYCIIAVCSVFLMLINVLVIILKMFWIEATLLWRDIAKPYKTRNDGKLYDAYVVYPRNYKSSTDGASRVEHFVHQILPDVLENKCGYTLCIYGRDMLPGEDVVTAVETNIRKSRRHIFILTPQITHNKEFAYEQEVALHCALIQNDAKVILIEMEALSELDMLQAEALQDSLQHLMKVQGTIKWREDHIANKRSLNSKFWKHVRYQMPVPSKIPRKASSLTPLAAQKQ

T2: recombinant protein containing hST2 extracellular domain with mouse antibody heavy chain Fc tag (hST2-ECD-mFc) (human)
T2 construct: Used for SPR and for ELISA of chimeric and humanized antibodies; also called human ST2 antigen
T2 chain: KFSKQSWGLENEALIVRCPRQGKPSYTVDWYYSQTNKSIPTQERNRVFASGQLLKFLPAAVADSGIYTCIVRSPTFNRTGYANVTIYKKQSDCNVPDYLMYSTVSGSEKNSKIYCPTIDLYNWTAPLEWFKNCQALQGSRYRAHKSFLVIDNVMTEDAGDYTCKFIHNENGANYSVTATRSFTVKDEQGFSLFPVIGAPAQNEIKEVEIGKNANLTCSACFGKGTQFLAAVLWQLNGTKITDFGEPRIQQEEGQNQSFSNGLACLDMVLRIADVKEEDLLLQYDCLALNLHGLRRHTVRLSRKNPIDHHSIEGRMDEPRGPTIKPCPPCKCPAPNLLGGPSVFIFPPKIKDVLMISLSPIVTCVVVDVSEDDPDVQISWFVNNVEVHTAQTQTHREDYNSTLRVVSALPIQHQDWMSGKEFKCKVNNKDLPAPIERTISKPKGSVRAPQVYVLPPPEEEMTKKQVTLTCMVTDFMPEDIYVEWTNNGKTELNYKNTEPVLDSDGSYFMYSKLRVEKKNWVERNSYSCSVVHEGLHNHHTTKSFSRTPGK

T3: cynomolgus monkey ST2 antigen (Cyno-ST2-his, Sino biological, 90915-C08H) (cynomolgus monkey, UniProt Q01638 19-328 (human entry))
T3 construct: Bought protein; not shown: his tag
T3 chain: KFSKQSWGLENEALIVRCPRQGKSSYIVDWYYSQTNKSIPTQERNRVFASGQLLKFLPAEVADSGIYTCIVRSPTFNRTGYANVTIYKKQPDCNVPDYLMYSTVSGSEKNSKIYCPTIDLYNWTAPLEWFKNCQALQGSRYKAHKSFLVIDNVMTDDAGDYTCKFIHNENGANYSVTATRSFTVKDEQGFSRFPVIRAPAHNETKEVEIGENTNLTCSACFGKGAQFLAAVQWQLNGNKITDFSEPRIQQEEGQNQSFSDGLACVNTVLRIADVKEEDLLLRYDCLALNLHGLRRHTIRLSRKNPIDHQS


Columns and labels:
[1] = molecular target: T1, human ST2 (hST2, Interleukin-1 …); experiment: flow cytometry on HEK293T-hST2-NFκB-Luciferase cells
Protocol: The binding capacity of the anti-ST2 antibodies to hST2-overexpressing cell lines and cyno-ST2-overexpressing cell lines was analyzed using an FACS-based method through binding assays with the hST2 (SEQ ID NO:1)-overexpressing HEK293T cell line (HEK293T-hST2-NFκB-Luciferase) and the cynomolgus monkey ST2 (SEQ ID NO: 10)-overexpressing HEK293T cell line (HEK293T-Cyno-ST2-NFKB-Luciferase). HEK293 cells were transfected with the pLenti6.3- hST2 plasmid and the pLenti6.3-NFκB-luciferasae plasmid using a lentiviral transfection system to construct the cell line HEK293T-hST2-NFκB-Luciferase. HEK293T cells were transfected with the pLenti6.3-cynoST2 plasmid and the pLenti6.3-NFκB-luciferasae plasmid to construct the cell line HEK293T-Cyno-ST2-NFκB-Luciferase.
3 × 10⁵ HEK293T-hST2-NFκB-Luciferase or HEK293T-Cyno-ST2-NFκB-Luciferase cells were added to a 96-well culture plate. Serially diluted anti-ST2 antibodies (serially diluted 4-fold from an initial concentration of 667 nM to 8 concentrations in binding assays with the HEK293T-hST2-NFκB-Luciferase cells; serially diluted 4-fold from an initial concentration of 400 nM to 8 concentrations in binding assays with the HEK293T-Cyno-ST2-NFκB-Luciferase cells) were added to the cell suspensions. After the plate was incubated at room temperature for 60 min, the cells were washed 3 times with PBS. […] The cells were washed 3 times with PBS and resuspended in 100 µ1L of PBS, and then the fluorescence signals were analyzed and detected using a flow cytometer (BD, Accuri C6). The binding capacity of the anti-ST2 antibodies to hST2 and cyno-ST2 on the cell line surfaces was measured in terms of the mean fluorescence intensity (MFI) of staining. The data were analyzed using GraphPad Prism5, and the EC₅₀ values were calculated. The EC₅₀ values for the binding of the anti-ST2 chimeric antibodies to hST2 and Cyno-ST2 at the cellular level are shown in Table 8 and FIGS. 7-8.

[2] = molecular target: T2, recombinant protein containing hST2 …; experiment: SPR (Biacore T200), hST2-ECD-mFc captured by anti-mouse IgG on CM5, antibody as analyte, 1:1 model
Protocol: (§1) The reaction signals were detected in real time using a Biacore instrument (Cytiva, BiacoreT200), and then an association-dissociation curve was obtained. After the completion of dissociation in each cycle, the biochip was regenerated with a regeneration solution for the next capture; the procedure was repeated until the affinity of the different antibodies for ST2 was determined. The acquired data were finally analyzed using the GE BIAevaluation software with a 1:1 (Langmuir) binding model to determine the association rate constants ka (kon) and the dissociation rate constants kd (koff), and the dissociation constants KD were given by KD = kd/ka. The determined affinity of the anti-ST2 antibody for human ST2 antigen (hST2-ECD-mFc), cynomolgus monkey ST2 antigen (Cyno-ST2-his, Sino biological, 90915-C08H) and the determined affinity of the anti-ST2 chimeric antibodies for ST2 were shown in Table 5.

[3] = molecular target: T3, cynomolgus monkey ST2 antigen …; experiment: SPR (Biacore T200), Cyno-ST2-his captured by anti-his antibody on CM5, antibody as analyte, 1:1 model
Protocol: as §1

Row | Binder | EC50 [1] [nM] | Kd [2] [nM] | Kd [3] [nM]
1 | Chimeric 31C8 (antibody, human IgG2, kappa, V domains shown, also called xi31C8) VH: QVQLQQSGPELVRPGASVTLSCKASGYIFIDSEMHWVKQTPVHGLEWIGAIDPETGDTVYNQKFKGKATLTADKSSSTASMELSSLTSEDSAVYYCTGSTTDYYFAYWGQGTTLTVSS VL: DIVMTQAAFSNPVTLGTSASISCRSSKSLLHSNGIIYLYWYLQKPGQSPQLLIYQMSNLASGVPDRFSSSGSGTDFTLRISRVEAEDVGVYYCAQNLELPFTFGSGTKLEIKR | 0.298 | 0.0177 | 0.323
2 | Chimeric 8F4 (antibody, human IgG2, kappa, V domains shown, also called xi8F4) VH: QVQLQQSGAELVRPGASVTLSCKASGHIFTDYEMQWVKQTPVHGLEWIGAFDPETGDTAYNQKFKGKATLTADKSSSTAYMELSSLTSEDSAVYYCSGSTTDYYFAYWGQGTSLTVSS VL: DVVMTQTAFSNPVTLGTSASISCRSSKSLLHSNGIIYLYWYLQKPGQSPQLLIYQMSNLASGVPDRFSSSGSGTDFTLRISRVEAEDVGVYYCAQNLELPFTFGSGTKLEIKR | 0.343 | 0.0933 | 4.04
3 | Chimeric 7D1 (antibody, human IgG2, kappa, V domains shown, also called xi7D1) VH: QVQLQQSGAELVRPGASVTLSCKASGYTFTDYEMHWVKQTPVHGLDWIGTIDPETGDTAYNQKFKGRATLTADKSSSTAYMELSSLTSEDSAVYYCTRYSYTNSPYGMDYWGQGTSVTVSS VL: DVVMTQTPKFLLVSAGDRVTITCKASQSVSNDVAWYQQKPGQSPKLLIYYASNRYTGVPDRFTGSGYGTDFTFTINTVQAEDLAVYFCQQDYSSPYTFGGGTKLEIKR | 0.265 | 0.145 | 0.124

Further binders by falling Kd [2], results first:

Row | EC50 [1] [nM] | Kd [2] [nM] | Kd [3] [nM] | Binder
4 | 0.349 | 0.0872 | 152 | Chimeric 3C6 (antibody, human IgG2, kappa, V domains shown, also called xi3C6) VH: QVQLQQSGAEVVRPGASVTLSCKASDYTITDYEMHWVKQTPVHGLEWIGAIDPETGDTAYSQNFKGKATLTADESSSTAYMELSSLTSEDSAVYYCSRSATDYYFASWGQGTTLTVSS VL: DIVMTQAAISNPVTLGTSASMSCRSSKSLLHSNGITYLYWYLQKPGHSPQLLIYQMSNLASGVPDRFSSSGSGTDFTLKISRVEAEDVGVYYCAQNLELPFTFGSGTKLEIKR
5 | 0.589 | 0.0686 | 0.049 | RG6149 (antibody Ab2 in CN104334582, prepared in-house) (antibody, human IgG2, kappa, V domains shown, Control anti-ST2 antibody) VH: EVQLVQSGAEVKKPGESLKISCKGSGYSFTNYWIGWVRQMPGKGLEWMGIIYPGNSDTRFSPSFQGQVTISADKSITTAYLQWSSLKASDTAMYYCARHGTSSDYYGLDVWGQGTTVTVSS VL: not shown
6 | 0.224 | 0.0541 | 0.0257 | Chimeric 17E2 (antibody, human IgG2, kappa, V domains shown, also called xi17E2) VH: QVQLQQSGAELVRPGASVTLSCKASGYTFTDYEMHWVKQTPVLGLEWIGAIDPETGDTAYNQKFKGKATLTADKSSSTAYMELSSLASEDSAVYYCIRVDSNYDYFDYWGQDTTLTVSS VL: DIVLTQSPPILSASPGEKVTMTCRASSSVSYMHWYQQKPGSSPKPWIYDTSNLASGVPARFSGSGSGTSYSLTISRVEAEDAATYYCQQWSSNPLTFGAGTKLELKR
7 |  | 0.0299 | 69.8 | Chimeric 26A1 (antibody, human IgG2, kappa, V domains shown, also called xi26A1) VH: QVQLQQSGAELVRPGASVTLSCKASDYIFTDSEIHWVKQTLVHGLEWIGAIDPETGDTAYNQKFKGKATLTADKSSSTAYMELSSLTSEGSAVYYCSGSTTDCYFAYWGQGTTLTVSS VL: DIVMTQAAFSNPVTLGTSASISCRSSKSLLHSNGIIYLYWYLQKPGQSPQLLIYQMSNLASGVPDRFSSSGSGTDFTLRISRVEAEDVGVYYCAQNLELPFTFGSGTKLEIKR
